Measurements as given in patent publication US7884189B2, “Carboxyltransferase domain of acetyl-CoA carboxylase” (The Trustees of Columbia University in the City of new York, priority 2003, dated 2011).
Residue numbers refer to the chain shown, from its start. In names and notes the source's numbering stands. Where two headings read alike, the source gives them in different places.

What was measured:
[1] = target: T1, CT domain of yeast ACC (Saccharomyces cerevisiae, UniProt Q00955); assay: CT domain enzyme kinetic assay, inhibition (decarboxylation of malonyl-CoA coupled to citrate synthase and malate dehydrogenase); format: biochemical, S. cerevisiae
T1 construct: made in house; host or cells: E. coli (pET24d)
T1 sequence (Q00955 1429-2233): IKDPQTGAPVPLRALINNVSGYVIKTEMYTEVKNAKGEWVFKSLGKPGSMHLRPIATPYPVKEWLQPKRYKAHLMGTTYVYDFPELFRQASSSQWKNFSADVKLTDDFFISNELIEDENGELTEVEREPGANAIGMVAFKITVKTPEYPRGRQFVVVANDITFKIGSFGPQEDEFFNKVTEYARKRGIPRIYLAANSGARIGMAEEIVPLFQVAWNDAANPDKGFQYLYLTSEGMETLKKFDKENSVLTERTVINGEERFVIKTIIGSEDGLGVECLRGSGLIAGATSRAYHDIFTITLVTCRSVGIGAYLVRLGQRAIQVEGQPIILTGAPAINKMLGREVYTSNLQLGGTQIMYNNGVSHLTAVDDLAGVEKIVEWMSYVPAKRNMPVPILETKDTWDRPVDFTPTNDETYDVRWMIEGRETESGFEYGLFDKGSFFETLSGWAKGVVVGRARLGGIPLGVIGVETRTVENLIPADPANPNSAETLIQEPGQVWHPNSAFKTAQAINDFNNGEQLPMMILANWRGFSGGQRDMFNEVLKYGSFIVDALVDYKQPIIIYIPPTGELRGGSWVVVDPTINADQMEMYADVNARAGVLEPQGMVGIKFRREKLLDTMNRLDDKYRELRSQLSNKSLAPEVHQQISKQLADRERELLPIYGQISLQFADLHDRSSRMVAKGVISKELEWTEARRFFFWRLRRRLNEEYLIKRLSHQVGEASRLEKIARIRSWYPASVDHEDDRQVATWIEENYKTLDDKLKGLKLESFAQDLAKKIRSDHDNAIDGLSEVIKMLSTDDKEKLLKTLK
Description: The CT domain can catalyze the decarboxylation of malonyl-CoA to produce acetyl-CoA in the presence of biotin methyl ester. Thus, the enzyme kinetic assays monitor the production of acetyl-CoA by coupling it to citrate synthase and malate dehydrogenase, which ultimately lead to the reduction of NAD^+.
Enzyme kinetic assays. The CT domain can catalyze the decarboxylation of malonyl-CoA to produce acetyl-CoA in the presence of biotin methyl ester. The kinetic assays monitored the production of acetyl-CoA by coupling it to citrate synthase and malate dehydronase, which ultimately lead to the reduction of NAD^+ (Guchhait et al., 1974, J. Biol. Chem. 9:6633-6645).

[2] = test system: mammalian ACC2; details: cited from earlier work
[3] = test system: ACC; details: cited from earlier work
[4] = Kinetic parameters of wild-type and mutant yeast CT (reverse reaction, malonyl-CoA to biotin methyl ester); format: biochemical, S. cerevisiae; details: 2.5 μM of the enzyme
Description: (§1) Enzyme kinetic assays. The CT domain can catalyze the decarboxylation of malonyl-CoA to produce acetyl-CoA in the presence of biotin methyl ester. The kinetic assays monitored the production of acetyl-CoA by coupling it to citrate synthase and malate dehydronase, which ultimately lead to the reduction of NAD^+ (Guchhait et al., 1974, J. Biol. Chem. […]). Mutations in the active site were designed based on the structural information. The mutants were made with the QuikChange kit (Stratagene) and sequenced for confirmation. They were purified and assayed kinetically under the same condition as the wild-type protein. The kinetic parameters for each enzyme were obtained by non-linear least-squares fitting to the initial velocity data.
To characterize the functional roles of the conserved residues in the active site, many of them were mutated and the kinetic parameters of the mutants for the reverse reaction, which transfers the carboxyl group of malonyl-CoA to biotin (Table D) were determined. […] Based on the structures of the invention, it is likely that this residue is important for recognizing the carboxyl group of malonyl-CoA, and this is also consistent with the hypothesis that the biotin substrate may be mostly associated with the C domain. Of the charged side chains that interact with the phosphate groups of CoA, mutation of Arg1731 gave rise to a 14-fold increase in the Km for malonyl-CoA (Table D), consistent with the structural observations. On the other hand, mutation of Arg2036 had minimal effects on the enzyme catalysis.
Mutagenesis and kinetic assays. The L1705I and V1967I single-site mutants as well as the L1705I/V1967I double mutant were made with the QuikChange kit (Stratagene), from the expression construct that covers residues 1476-2233. The mutants were sequenced, expressed in E. coli, and purified following the same protocol as that for thewild-type CT domain. The catalytic activity of the CT domain was assayed following protocols described earlier (Guchhait, R. B. et al. (1974) Acetyl coenzyme A carboxylase system from Escherichia coli. Purification and properties of the biotin carboxylase, carboxyltransferase, and carboxyl carrier protein components. J Biol Chem 249, 6633-6645; Zhang et al., 2003). […] The concentration of the malonyl-CoA substrate was kept close to the expected Km, 75 μM for the wild-type enzyme and 750 μM for the mutants. The wild-type enzyme was at 2.5 μM concentration, whereas the mutants were at 20 μM concentration.

[5] = target: T2, L1705I, V1967I and L1705I/V1967I mutants of the yeast CT domain (Saccharomyces cerevisiae, UniProt Q00955); assay: CT domain enzyme kinetic assay, inhibition of mutant CT domains; format: biochemical, S. cerevisiae; details: single and double mutants; malonyl-CoA 750 μM, mutants at 20 μM
T2 construct: fused on or other part: C-terminal His-tag (pET24d)
T2 sequence (Q00955 whole entry L1705I/V1967I, form open, the tested form may be a part): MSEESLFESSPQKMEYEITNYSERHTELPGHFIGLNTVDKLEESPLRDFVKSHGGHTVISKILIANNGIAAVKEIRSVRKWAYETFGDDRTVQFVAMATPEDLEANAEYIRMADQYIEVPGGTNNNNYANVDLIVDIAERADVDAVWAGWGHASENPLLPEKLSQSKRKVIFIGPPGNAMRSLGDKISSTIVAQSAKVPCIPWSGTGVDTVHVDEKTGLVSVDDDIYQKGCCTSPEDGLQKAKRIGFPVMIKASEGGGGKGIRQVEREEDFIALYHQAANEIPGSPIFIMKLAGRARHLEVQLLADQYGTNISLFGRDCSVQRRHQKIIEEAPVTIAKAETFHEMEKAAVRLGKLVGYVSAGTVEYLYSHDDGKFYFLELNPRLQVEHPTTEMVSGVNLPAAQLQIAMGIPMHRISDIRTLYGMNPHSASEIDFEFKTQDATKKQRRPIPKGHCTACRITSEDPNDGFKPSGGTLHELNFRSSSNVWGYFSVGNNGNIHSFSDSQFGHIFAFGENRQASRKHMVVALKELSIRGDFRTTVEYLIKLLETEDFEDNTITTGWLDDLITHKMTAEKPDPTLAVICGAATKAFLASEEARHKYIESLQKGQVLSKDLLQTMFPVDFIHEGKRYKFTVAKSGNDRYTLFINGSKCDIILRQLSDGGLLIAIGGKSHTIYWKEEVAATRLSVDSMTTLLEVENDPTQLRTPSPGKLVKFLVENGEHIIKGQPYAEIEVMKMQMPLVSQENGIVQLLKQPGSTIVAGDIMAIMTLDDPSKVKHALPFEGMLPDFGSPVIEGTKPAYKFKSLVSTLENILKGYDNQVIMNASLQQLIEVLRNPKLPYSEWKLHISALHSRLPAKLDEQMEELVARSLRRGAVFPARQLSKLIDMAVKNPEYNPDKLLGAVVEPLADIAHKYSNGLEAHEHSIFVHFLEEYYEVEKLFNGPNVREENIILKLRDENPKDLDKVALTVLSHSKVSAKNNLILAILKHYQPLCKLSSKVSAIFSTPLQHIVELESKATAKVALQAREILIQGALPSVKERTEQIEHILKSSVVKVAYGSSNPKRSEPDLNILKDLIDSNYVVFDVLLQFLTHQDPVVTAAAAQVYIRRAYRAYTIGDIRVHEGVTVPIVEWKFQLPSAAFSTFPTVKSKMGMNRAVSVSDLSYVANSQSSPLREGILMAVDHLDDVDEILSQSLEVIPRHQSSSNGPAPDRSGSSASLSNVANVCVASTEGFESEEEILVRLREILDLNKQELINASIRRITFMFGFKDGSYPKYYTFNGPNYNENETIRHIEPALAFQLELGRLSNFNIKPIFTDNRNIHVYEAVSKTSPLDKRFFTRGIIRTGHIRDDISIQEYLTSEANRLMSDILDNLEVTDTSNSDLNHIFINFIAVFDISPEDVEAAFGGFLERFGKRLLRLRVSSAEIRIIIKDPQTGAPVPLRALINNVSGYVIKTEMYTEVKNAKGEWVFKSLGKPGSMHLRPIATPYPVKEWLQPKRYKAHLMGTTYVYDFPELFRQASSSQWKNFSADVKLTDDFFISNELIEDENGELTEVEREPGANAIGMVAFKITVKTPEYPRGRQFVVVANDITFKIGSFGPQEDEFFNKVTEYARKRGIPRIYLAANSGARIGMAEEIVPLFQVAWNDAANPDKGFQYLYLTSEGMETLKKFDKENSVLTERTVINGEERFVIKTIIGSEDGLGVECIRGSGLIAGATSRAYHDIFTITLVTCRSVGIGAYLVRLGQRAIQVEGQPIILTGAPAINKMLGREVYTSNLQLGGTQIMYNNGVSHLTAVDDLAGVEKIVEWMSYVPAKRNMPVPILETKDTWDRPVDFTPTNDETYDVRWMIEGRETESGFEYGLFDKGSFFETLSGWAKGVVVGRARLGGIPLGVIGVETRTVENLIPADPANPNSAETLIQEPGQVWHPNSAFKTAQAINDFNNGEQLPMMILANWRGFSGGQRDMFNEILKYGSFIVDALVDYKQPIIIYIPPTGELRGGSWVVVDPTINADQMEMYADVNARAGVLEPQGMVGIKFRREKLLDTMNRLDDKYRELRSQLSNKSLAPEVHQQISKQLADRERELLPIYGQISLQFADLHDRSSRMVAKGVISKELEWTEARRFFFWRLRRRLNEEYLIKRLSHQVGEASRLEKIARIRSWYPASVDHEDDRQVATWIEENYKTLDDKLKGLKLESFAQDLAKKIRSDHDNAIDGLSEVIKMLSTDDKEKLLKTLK
Description: as §1
Mutagenesis and kinetic assays. The L1705I and V1967I single-site mutants as well as the L1705I/V1967I double mutant were made with the QuikChange kit (Stratagene), from the expression construct that covers residues 1476-2233. The mutants were sequenced, expressed in E. coli, and purified following the same protocol as that for thewild-type CT domain. […]

[6] = target: the molecule itself; assay: light scattering in solution (homodimer)

For `O=C(c1c2ccccc2cc2ccccc12)N1CCC(N2CCC[C@@H](C(=O)N3CCOCC3)C2)CC1` [CP-640186], the Ki ([1]; versus malonyl-CoA, about 3 μM of enzyme in the reaction buffer, read-out: Ki) is given as ~4 µM, the mode of inhibition ([1]; with respect to malonyl-CoA) is given as “non-competitive” and the IC50 [2] is given as ~0.055 µM.

For `CC(Oc1ccc(Oc2ncc(C(F)(F)F)cc2Cl)cc1)C(=O)SCCNC(=O)CCNC(=O)C(O)C(C)(C)COP(=O)(O)OP(=O)(O)OCC1OC(n2cnc3c(N)ncnc32)C(O)C1OP(=O)(O)O` (stereo not drawn) [CoA ester of haloxyfop], the “potency relative to haloxyfop” value [3] is given as “more potent inhibitor”.

For E1994Q, the Km [4] was 109 ± 5 µM and the Vmax [4] was 272 ± 3 ×10^−5 AU/s.

For Y1738F, the Km [4] was 53 ± 6 µM and the Vmax [4] was 152 ± 3 ×10^−5 AU/s.

`CC(Oc1ccc(Oc2ncc(C(F)(F)F)cc2Cl)cc1)C(=O)O` (stereo not drawn) [haloxyfop] showed a Ki [1] of ~500 µM and a Ki [5] of ~500 µM.

For R1954S, the Km [4] was 5100 ± 1200 µM and the Vmax [4] was 39 ± 6 ×10^−5 AU/s.

For E2026Q, the Km [4] was 218 ± 24 µM and the Vmax [4] was 144 ± 6 ×10^−5 AU/s.

For R2036E, the Km [4] was 41 ± 4 µM and the Vmax [4] was 133 ± 3 ×10^−5 AU/s.

With R1731S the Km [4] was 909 ± 72 µM and the Vmax [4] was 385 ± 10 ×10^−5 AU/s.

B1: L1705I/V1967I double mutant of the yeast CT domain (residues 1476-2233) (enzyme)
chain: GSMHLRPIATPYPVKEWLQPKRYKAHLMGTTYVYDFPELFRQASSSQWKNFSADVKLTDDFFISNELIEDENGELTEVEREPGANAIGMVAFKITVKTPEYPRGRQFVVVANDITFKIGSFGPQEDEFFNKVTEYARKRGIPRIYLAANSGARIGMAEEIVPLFQVAWNDAANPDKGFQYLYLTSEGMETLKKFDKENSVLTERTVINGEERFVIKTIIGSEDGLGVECIRGSGLIAGATSRAYHDIFTITLVTCRSVGIGAYLVRLGQRAIQVEGQPIILTGAPAINKMLGREVYTSNLQLGGTQIMYNNGVSHLTAVDDLAGVEKIVEWMSYVPAKRNMPVPILETKDTWDRPVDFTPTNDETYDVRWMIEGRETESGFEYGLFDKGSFFETLSGWAKGVVVGRARLGGIPLGVIGVETRTVENLIPADPANPNSAETLIQEPGQVWHPNSAFKTAQAINDFNNGEQLPMMILANWRGFSGGQRDMFNEILKYGSFIVDALVDYKQPIIIYIPPTGELRGGSWVVVDPTINADQMEMYADVNARAGVLEPQGMVGIKFRREKLLDTMNRLDDKYRELRSQLSNKSLAPEVHQQISKQLADRERELLPIYGQISLQFADLHDRSSRMVAKGVISKELEWTEARRFFFWRLRRRLNEEYLIKRLSHQVGEASRLEKIARIRSWYPASVDHEDDRQVATWIEENYKTLDDKLKGLKLESFAQDLAKKIRSDHDNAIDGLSEVIKMLSTDDKEKLLKTLK
notes: also called mutated yeast CT domain; mutant CT domain; not shown: C-terminal His-tag of the parent pET24d construct
B1: binds [6].

B2: L1705I (protein)
chain: B1 chain with I492V
modifications: left off: small tags and cut ends
For B2, the Km [4] was 1340 ± 180 µM and the Vmax [4] was 12 ± 0.3 ×10^−5 AU/s.
